Measurements as given in patent publication US20250320305A1.

How the values were obtained:
[1] = target: biotinylated recombinant human FAP (human) (UniProt Q12884); assay: SPR (Biacore), biotinylated huFAP on CAPture chip, Fab analyte
[2] = target: biotinylated recombinant human FAP (human) (UniProt Q12884); assay: SPR (Biacore)
[3] = target: human CD40 extracellular domain with C-terminal His-AviTag (human) (UniProt P25942); assay: SPR, antibody captured, CD40 ECD analyte
[4] = target: human CD40 expressed on cells (human) (UniProt P25942); assay: flow cytometry, Raji cells
[5] = target: human CD40 expressed on cells (human) (UniProt P25942); assay: flow cytometry, primary human B cells

B1: 4B9_Fab (Fab, from a related filing, V domains shown)
VH: EVQLLESGGGLVQPGGSLRLSCAASGFTFSSYAMSWVRQAPGKGLEWVSAIIGSGASTYYADSVKGRFTISRDNSKNTLYLQMNSLRAEDTAVYYCAKGWFGGFNYWGQGTLVTVSS
VL: EIVLTQSPGTLSLSPGERATLSCRASQSVTSSYLAWYQQKPGQAPRLLINVGSRRATGIPDRFSGSGSGTDFTLTISRLEPEDFAVYYCQQGIMLPPTFGQGTKVEIK
Binder B1 has a Kd [1] of 0.43 nM, a koff [1] of 0.00078 s⁻¹ and a kon [1] of 1.82e+06 M⁻¹ s⁻¹. The Kd [2] was 0.279 nM, the T ½ [2] was 55 min and the koff [2] was 0.000208 s⁻¹. For the same binder, the kon [2] was 747000 M⁻¹ s⁻¹.

B2: P1AD4470, anti-CD40 control antibody (CD40 IgG1) (antibody, from a related filing, V domains shown)
VH: EVQLVESGGGLVQPGGSLRLSCAASGYSFTGYYIHWVRQAPGKGLEWVARVIPNAGGTSYNQKFKGRFTLSVDNSKNTAYLQMNSLRAEDTAVYYCAREGIYWWGQGTLVTVSS
VL: DIQMTQSPSSLSASVGDRVTITCRSSQSLVHSNGNTFLHWYQQKPGKAPKLLIYTVSNRFSGVPSRFSGSGSGTDFTLTISSLQPEDFATYFCSQTTHVPWTFGQGTKVEIKR
For B2, the Kd [3] was 4.6 nM, the koff [3] was 0.00781 s⁻¹ and the kon [3] was 1.69e+06 M⁻¹ s⁻¹. It also gave an EC50 [4] of 0.09 µg/mL and an EC50 [5] of 0.333 nM.
